This data set in a line: protein stability index of a GFP-peptide fusion (yeast GPS) (PSI 1-4); higher = more stable; sorted into four equal gates, so the index is relative within each strain. The procedure, abridged:
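Tiled 17-residue yeast protein peptides were fused downstream of GFP in a plasmid that also expresses Cherry, and the pooled library was carried in yeast. Mid-log cultures in leucine-free medium were sorted into four equal gates by GFP/Cherry fluorescence ratio, and plasmids from each gate were PCR-amplified and Illumina-sequenced, with reads assigned to strains by barcodes. The protein stability index for each peptide was each gate's read frequency times its gate number, summed.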

± gives the uncertainty stated by the source.

Consider ISQKLHDSILHSRILPK [RRP43], for which the protein stability index came to 2.57 ± 0.046 (doa10∆), 2.58 ± 0.033 (pdr5∆), 2.62 ± 0.037 (san1∆) and 2.8 ± 0.038 (ubr1∆).
As for ISQLYSDAVMAEHSQNK [YJL041W/NSP1], the protein stability index (doa10∆) amounted to 2.99 ± 0.079, the protein stability index (pdr5∆) is 2.83 ± 0.081, the protein stability index (san1∆) came out at 2.75 ± 0.096 and the protein stability index (ubr1∆) worked out at 2.81 ± 0.088.
For ISSSTQCLRFLKETVIP [POP6], the protein stability index came out at 1.52 ± 0.074 (doa10∆), 1.87 ± 0.11 (pdr5∆), 1.26 ± 0.22 (san1∆) and 2.27 ± 0.073 (ubr1∆).
With ISTYISTDELVGSPLTV [POP8], the protein stability index was 1.49 ± 0.13 (doa10∆), 2.6 ± 0.1 (pdr5∆), 2.27 ± 0.16 (san1∆) and 2.2 ± 0.081 (ubr1∆).
For ISVIETIRVVTENKIFV [RPN5], the protein stability index by setting is: (doa10∆) 1.6 ± 0.14; (pdr5∆) 1.82 ± 0.1; (san1∆) 1.9 ± 0.27; (ubr1∆) 2.03 ± 0.093.
In the case of ISYKKGAASNRTKFVRS [RPL36A], the protein stability index is, setting by setting: (doa10∆) 3.06 ± 0.1; (pdr5∆) 3.2 ± 0.1; (san1∆) 3.13 ± 0.11; (ubr1∆) 3.26 ± 0.22.
In the same order, the values of ITATLVGTVRCEEEKKT [CSL4] are 1.54 ± 0.14, 1.9 ± 0.25, 1.67 ± 0.16 and 1.58 ± 0.079.
For the sequence ITDKGTVDGRLYQLFKT [YJL039C/NUP192], the protein stability index is, setting by setting: (doa10∆) 3.19 ± 0.11; (pdr5∆) 3.46 ± 0.097; (san1∆) 3.3 ± 0.069; (ubr1∆) 3.46 ± 0.094.
For ITDKTIESIVNLAPKLR [GRR1], in that order: 2.81 ± 0.081, 2.27 ± 0.059, 1.83 ± 0.086 and 2.76 ± 0.037.
In the same order, the values of ITHPGKMELVYVSDSDD [SIR4] are 3.24 ± 0.077, 3.34 ± 0.075, 3.31 ± 0.085 and 3.25 ± 0.073.
Consider ITHQLNNKFANKIIPNV [RPC25], for which the protein stability index reads like this: (doa10∆) 2.72 ± 0.069; (pdr5∆) 3.03 ± 0.08; (san1∆) 2.93 ± 0.053; (ubr1∆) 3.01 ± 0.082.
For the sequence ITKFALFAESHDVLQKL [YML103C/NUP188], the protein stability index (doa10∆) is 2.34 ± 0.1, the protein stability index (pdr5∆) was 1.78 ± 0.2, the protein stability index (san1∆) is 2.02 ± 0.13 and the protein stability index (ubr1∆) is 2.45 ± 0.075.
ITLVEPEILRFKVYEPL [RPS16A]: the protein stability index turned out to be 3.25 ± 0.21 (pdr5∆), 2.54 ± 0.22 (san1∆) and 2.75 ± 0.074 (ubr1∆).
As for ITNTDETITTKRVPNPN [SWP82], the protein stability index (doa10∆) was 3.09 ± 0.077, the protein stability index (pdr5∆) turned out to be 3.25 ± 0.098, the protein stability index (san1∆) stood at 3.13 ± 0.078 and the protein stability index (ubr1∆) is 3.21 ± 0.082.
ITSFDQDVDDAHAIDQM [POP8]: the protein stability index reads like this: (doa10∆) 1.55 ± 0.064; (pdr5∆) 1.23 ± 0.061; (san1∆) 1.15 ± 0.093; (ubr1∆) 1.08 ± 0.11.
On to ITSFGFGQKGGQAIVVH [FAS2], for which the protein stability index reads like this: (doa10∆) 1.28 ± 0.074; (pdr5∆) 1.44 ± 0.036; (san1∆) 1.52 ± 0.088; (ubr1∆) 1.69 ± 0.046.
Regarding ITSINVENDTFIERNFT [FAS2], the protein stability index is, setting by setting: (doa10∆) 3.01 ± 0.089; (pdr5∆) 2.68 ± 0.081; (san1∆) 3.17 ± 0.072; (ubr1∆) 3.19 ± 0.05.
As to ITVTAKQQPTMQANKLD [SWI3], the protein stability index came to 3.19 ± 0.096 (doa10∆), 3.15 ± 0.071 (pdr5∆), 2.82 ± 0.07 (san1∆) and 3.01 ± 0.055 (ubr1∆).
In turn, ITYGIIKVPTYIRKLIS [SRB8] yielded a protein stability index (doa10∆) of 1.32 ± 0.074, a protein stability index (pdr5∆) of 1.44 ± 0.091, a protein stability index (san1∆) of 1.42 ± 0.2 and a protein stability index (ubr1∆) of 1.36 ± 0.085.
IVEEDLEPFEASKETAE [FAS2]: the protein stability index amounted to 3.42 ± 0.18 (doa10∆), 3.21 ± 0.11 (pdr5∆), 3.1 ± 0.087 (san1∆) and 3.25 ± 0.089 (ubr1∆).
The sequence IVEINNVSNTFNKTTNI [YJL041W/NSP1] returned a protein stability index (doa10∆) of 2.87 ± 0.048, a protein stability index (pdr5∆) of 2.9 ± 0.05, a protein stability index (san1∆) of 2.71 ± 0.046 and a protein stability index (ubr1∆) of 2.86 ± 0.038.
Consider IVFDNTDKSNSPIGFTN [SMC2], for which the protein stability index stood at 3.1 ± 0.049 (doa10∆), 3.15 ± 0.063 (pdr5∆), 3.15 ± 0.052 (san1∆) and 2.96 ± 0.068 (ubr1∆).
Regarding IVFHNEFSEHTFVERLP [DIS3], the protein stability index amounted to 2.43 ± 0.05 (doa10∆), 2.28 ± 0.063 (pdr5∆), 2.64 ± 0.058 (san1∆) and 2.68 ± 0.053 (ubr1∆).
Take IVNNDLPTTVVSNPGDN [MED2]: the protein stability index (doa10∆) stood at 2.84 ± 0.051, the protein stability index (pdr5∆) amounted to 2.96 ± 0.052, the protein stability index (san1∆) was found to be 2.82 ± 0.052 and the protein stability index (ubr1∆) stood at 3.02 ± 0.033.
Turning to IVPSMTHLEIEPFTILG [RET1], the protein stability index was 1.49 ± 0.037 (doa10∆), 2.05 ± 0.055 (pdr5∆), 2.29 ± 0.1 (san1∆) and 2.27 ± 0.035 (ubr1∆).

Values taken from the supplement of paper PMC9732359.
